Test results reported in the MegaScale stability set (Tsuboyama et al. 2023).

B1: EEHEE_rd4_0469 (parent)
chain: ITIHVNGVTYHFDNPEEAEKFAQKMAKTYQLKMEIHNGEFHME

Variants of: B1
Assay: folding stability dG (cDNA display proteolysis); higher = more stable
Settings: PBS, room temperature

Row | Variant | folding stability dG [kcal/mol]
1 | ITIHVNGVTYHFDNPEYAEKFAQKMAKTYQLKMEIHNGEFHME | 0.867
2 | ITIHVNGVTYHFDNPEAAEKFAQKMAKTYQLKMEIHNGEFHME | 1.15
3 | ITIHVNGVTYHFDNPEKAEKFAQKMAKTYQLKMEIHNGEFHME | 1.14
4 | ITIHVNGVTYHFDNPESAEKFAQKMAKTYQLKMEIHNGEFHME | 1.15
5 | ITIHVNGVTYHFDNPECAEKFAQKMAKTYQLKMEIHNGEFHME | 1.81
6 | ITIHVNGVTYHFDNPEVAEKFAQKMAKTYQLKMEIHNGEFHME | 1.02
7 | ITIHVNGVTYHFDNPEMAEKFAQKMAKTYQLKMEIHNGEFHME | 1.07
8 | ITIHVNGVTYHFDNPEQAEKFAQKMAKTYQLKMEIHNGEFHME | 1.03
9 | ITIHVNGVTYHFDNPELAEKFAQKMAKTYQLKMEIHNGEFHME | 1.19
10 | ITIHVNGVTYHFDNPEDAEKFAQKMAKTYQLKMEIHNGEFHME | 1.06
11 | ITIHVNGVTYHFDNPEWAEKFAQKMAKTYQLKMEIHNGEFHME | 1.01
12 | ITIHVNGVTYHFDNPEGAEKFAQKMAKTYQLKMEIHNGEFHME | 0.714
13 | ITIHVNGVTYHFDNPEHAEKFAQKMAKTYQLKMEIHNGEFHME | 0.948
14 | ITIHVNGVTYHFDNPEFAEKFAQKMAKTYQLKMEIHNGEFHME | 0.96
15 | ITIHVNGVTYHFDNPEPAEKFAQKMAKTYQLKMEIHNGEFHME | 0.444
16 | ITIHVNGVTYHFDNPERAEKFAQKMAKTYQLKMEIHNGEFHME | 1.07
17 | ITIHVNGVTYHFDNPENAEKFAQKMAKTYQLKMEIHNGEFHME | 0.912
18 | ITIHVNGVTYHFDNPETAEKFAQKMAKTYQLKMEIHNGEFHME | 1.07
19 | ITIHVNGVTYHFDNPEIAEKFAQKMAKTYQLKMEIHNGEFHME | 1.09
20 | ITIHVNGVTYHFDNPEEAEMFAQKMAKTYQLKMEIHNGEFHME | 1.15

Row | Variant | folding stability dG [kcal/mol]
21 | ITIHVNGVTYHFDNPEEAEEFAQKMAKTYQLKMEIHNGEFHME | 1.11
22 | ITIHVNGVTYHFDNPEEAEAFAQKMAKTYQLKMEIHNGEFHME | 1.21
23 | ITIHVNGVTYHFDNPEEAECFAQKMAKTYQLKMEIHNGEFHME | 2.01
24 | ITIHVNGVTYHFDNPEEAELFAQKMAKTYQLKMEIHNGEFHME | 1.23
25 | ITIHVNGVTYHFDNPEEAEFFAQKMAKTYQLKMEIHNGEFHME | 1.1
26 | ITIHVNGVTYHFDNPEEAEDFAQKMAKTYQLKMEIHNGEFHME | 1.03
27 | ITIHVNGVTYHFDNPEEAEIFAQKMAKTYQLKMEIHNGEFHME | 1.18
28 | ITIHVNGVTYHFDNPEEAEGFAQKMAKTYQLKMEIHNGEFHME | 0.79
29 | ITIHVNGVTYHFDNPEEAEHFAQKMAKTYQLKMEIHNGEFHME | 1.15
30 | ITIHVNGVTYHFDNPEEAENFAQKMAKTYQLKMEIHNGEFHME | 1.02
31 | ITIHVNGVTYHFDNPEEMEKFAQKMAKTYQLKMEIHNGEFHME | 0.753
32 | ITIHVNGVTYHFDNPEEDEKFAQKMAKTYQLKMEIHNGEFHME | -0.444
33 | ITIHVNGVTYHFDNPEENEKFAQKMAKTYQLKMEIHNGEFHME | -0.125
34 | ITIHVNGVTYHFDNPEEGEKFAQKMAKTYQLKMEIHNGEFHME | 1.03
35 | ITIHVNGVTYHFDNPEETEKFAQKMAKTYQLKMEIHNGEFHME | 0.325
36 | ITIHVNGVTYHFDNPEEPEKFAQKMAKTYQLKMEIHNGEFHME | -0.237
37 | ITIHVNGVTYHFDNPEELEKFAQKMAKTYQLKMEIHNGEFHME | 0.747
38 | ITIHVNGVTYHFDNPEECEKFAQKMAKTYQLKMEIHNGEFHME | 1.56
39 | ITIHVNGVTYHFDNPEEREKFAQKMAKTYQLKMEIHNGEFHME | 0.63
40 | ITIHVNGVTYHFDNPEEIEKFAQKMAKTYQLKMEIHNGEFHME | 0.525

Row | Variant | folding stability dG [kcal/mol]
41 | ITIHVNGVTYHFDNPEEEEKFAQKMAKTYQLKMEIHNGEFHME | 0.011
42 | ITIHVNGVTYHFDNPEEWEKFAQKMAKTYQLKMEIHNGEFHME | 0.81
43 | ITIHVNGVTYHFDNPEEYEKFAQKMAKTYQLKMEIHNGEFHME | 0.556
44 | ITIHVNGVTYHFDNPEEKEKFAQKMAKTYQLKMEIHNGEFHME | 0.431
45 | ITIHVNGVTYHFDNPEESEKFAQKMAKTYQLKMEIHNGEFHME | 0.425
46 | ITIHVNGVTYHFDNPEEVEKFAQKMAKTYQLKMEIHNGEFHME | 0.798
47 | ITIHVNGVTYHFDNPEEFEKFAQKMAKTYQLKMEIHNGEFHME | 1
48 | ITIHVNGVTYHFDNPEEQEKFAQKMAKTYQLKMEIHNGEFHME | 0.282
49 | ITIHVNGVTYHFDNPEEHEKFAQKMAKTYQLKMEIHNGEFHME | 0.114
50 | ITIHVNGVTYHFDVPEEAEKFAQKMAKTYQLKMEIHNGEFHME | 1.1
51 | ITIHVNGVTYHFDRPEEAEKFAQKMAKTYQLKMEIHNGEFHME | 1.09
52 | ITIHVNGVTYHFDGPEEAEKFAQKMAKTYQLKMEIHNGEFHME | 0.9
53 | ITIHVNGVTYHFDPPEEAEKFAQKMAKTYQLKMEIHNGEFHME | 0.129
54 | ITIHVNGVTYHFDKPEEAEKFAQKMAKTYQLKMEIHNGEFHME | 1.1
55 | ITIHVNGVTYHFDLPEEAEKFAQKMAKTYQLKMEIHNGEFHME | 1.18
56 | ITIHVNGVTYHFDHPEEAEKFAQKMAKTYQLKMEIHNGEFHME | 0.946
57 | ITIHVNGVTYHFDYPEEAEKFAQKMAKTYQLKMEIHNGEFHME | 0.849
58 | ITIHVNGVTYHFDWPEEAEKFAQKMAKTYQLKMEIHNGEFHME | 1.05
59 | ITIHVNGVTYHFDQPEEAEKFAQKMAKTYQLKMEIHNGEFHME | 1
